Measurements as given in patent US8580321B2, “Method for reducing the effects of chemotherapy using flagellin related polypeptides” (priority 2003, dated 2013).

System: NF-κB
Assay: EMSA of NF-κB translocation / DNA binding in A549 cells
Details: for NF-κB Stimulation / level of NF-κB translocation, fragments versus flagellin: A549 cells; for NF-κB Stimulation: 1 μg/ml, 45 min, EMSA of whole cell extracts; for level of NF-κB translocation, fragments versus flagellin / inducing NF-κB translocation: EMSA; for inducing NF-κB translocation: nuclear extracts of treated A549 lung cancer cells

Molecule	NF-κB Stimulation	level of NF-κB translocation, fragments versus flagellin	inducing NF-κB translocation
AA′n1-70: flagellin variant N-terminal 1-70, C-terminal 402-505, SEQ ID NO: 54	No		
AA′n1-129: flagellin variant N-terminal 1-129, C-terminal 402-505, SEQ ID NO: 42	Yes		
AA′n54-129: flagellin variant N-terminal 54-129, C-terminal 402-505, SEQ ID NO: 44	Yes		
BA′: flagellin fragment (56-177)-Linker-(402-505), SEQ ID NO: 12	Yes	comparable	capable of inducing NF-κB translocation
CA′: flagellin fragment (56-100)-Linker-(402-505), SEQ ID NO: 16	No		
GST-A′: GST-Linker-(402-505), SEQ ID NO: 26	No		
AB′n1-163: flagellin variant N-terminal 1-163, C-terminal 402-450, SEQ ID NO: 40 (protein, Salmonella dublin) MRGSHHHHHHGMASMTGGQQMGRDLYDDDDKDPMAQVINTNSLSLLTQNNLNKSQSSLSSAIERLSSGLRINSAKDDAAGQAIANRFTSNIKGLTQASRNANDGISIAQTTEGALNEINNNLQRVRELSVQATNGTNSDSDLKSIQDEIQQRLEEIDRVSNQTQFNGVKVLSQDNQMKIQVGANDGETITIDLQKIIPGISGGGGGILDSMGTLINEDAAAAKKSTANPLASIDSALSKVDAVRSSLGAIQNRFDSAITNL	Yes		
AB′n1-170: flagellin variant N-terminal 1-170, C-terminal 402-450, SEQ ID NO: 38 (protein, Salmonella dublin) MRGSHHHHHHGMASMTGGQQMGRDLYDDDDKDPMAQVINTNSLSLLTQNNLNKSQSSLSSAIERLSSGLRINSAKDDAAGQAIANRFTSNIKGLTQASRNANDGISIAQTTEGALNEINNNLQRVRELSVQATNGTNSDSDLKSIQDEIQQRLEEIDRVSNQTQFNGVKVLSQDNQMKIQVGANDGETITIDLQKIDVKSLGLIPGISGGGGGILDSMGTLINEDAAAAKKSTANPLASIDSALSKVDAVRSSLGAIQNRFDSAITNL	Yes		
CB′: flagellin fragment (56-100)-Linker-(402-450), SEQ ID NO: 18 (protein, Salmonella dublin) MRGSHHHHHHGMASMTGGQQMGRDLYDDDDKDPFTSNIKGLTQASRNANDGISIAQTTEGALNEINNNLQRVRELSVQATSPGISGGGGGILDSMGTLINEDAAAAKKSTANPLASIDSALSKVDAVRSSLGAIQNRFDSAITNL	No		
AB′n1-70: flagellin variant N-terminal 1-70, C-terminal 402-450, SEQ ID NO: 56 (protein, Salmonella dublin) MRGSHHHHHHGMASMTGGQQMGRDLYDDDDKDPMAQVINTNSLSLLTQNNLNKSQSSLSSAIERLSSGLRINSAKDDAAGQAIANRFTSNIKGLTQASRNANDIPGISGGGGGILDSMGTLINEDAAAAKKSTANPLASIDSALSKVDAVRSSLGAIQNRFDSAITNL	No		
AB′: flagellin fragment (1-177)-Linker-(402-450), SEQ ID NO: 10 (protein, Salmonella dublin) MRGSHHHHHHGMASMTGGQQMGRDLYDDDDKDPMAQVINTNSLSLLTQNNLNKSQSSLSSAIERLSSGLRINSAKDDAAGQAIANRFTSNIKGLTQASRNANDGISIAQTTEGALNEINNNLQRVRELSVQATNGTNSDSDLKSIQDEIQQRLEEIDRVSNQTQFNGVKVLSQDNQMKIQVGANDGETITIDLQKIDVKSLGLDGFNVNSPGISGGGGGILDSMGTLINEDAAAAKKSTANPLASIDSALSKVDAVRSSLGAIQNRFDSAITNL	Yes	comparable	capable of inducing NF-κB translocation
B: flagellin N-terminus (56-177), SEQ ID NO: 22 (protein, Salmonella dublin) MRGSHHHHHHGMASMTGGQQMGRDLYDDDDKDPFTSNIKGLTQASRNANDGISIAQTTEGALNEINNNLQRVRELSVQATNGTNSDSDLKSIQDEIQQRLEEIDRVSNQTQFNGVKVLSQDNQMKIQVGANDGETITIDLQKIDVKSLGLDGFNVNSPG	No		
A: flagellin N-terminus (1-177), SEQ ID NO: 20 (protein, Salmonella dublin) MRGSHHHHHHGMASMTGGQQMGRDLYDDDDKDPMAQVINTNSLSLLTQNNLNKSQSSLSSAIERLSSGLRINSAKDDAAGQAIANRFTSNIKGLTQASRNANDGISIAQTTEGALNEINNNLQRVRELSVQATNGTNSDSDLKSIQDEIQQRLEEIDRVSNQTQFNGVKVLSQDNQMKIQVGANDGETITIDLQKIDVKSLGLDGFNVNSPG	No		
C: flagellin N-terminus (56-100), SEQ ID NO: 24 (protein, Salmonella dublin) MRGSHHHHHHGMASMTGGQQMGRDLYDDDDKDPFTSNIKGLTQASRNANDGISIAQTTEGALNEINNNLQRVRELSVQATSPG	No		
